Reference: IntAct's records for PubMed 22158122

B1: TGF-beta-activated kinase 1 and MAP3K7-binding protein 2 (Homo sapiens), Q9NYJ8 (parent)
chain: MAQGSHQIDFQVLHDLRQKFPEVPEVVVSRCMLQNNNNLDACCAVLSQESTRYLYGEGDLNFSDDSGISGLRNHMTSLNLDLQSQNIYHHGREGSRMNGSRTLTHSISDGQLQGGQSNSELFQQEPQTAPAQVPQGFNVFGMSSSSGASNSAPHLGFHLGSKGTSSLSQQTPRFNPIMVTLAPNIQTGRNTPTSLHIHGVPPPVLNSPQGNSIYIRPYITTPGGTTRQTQQHSGWVSQFNPMNPQQVYQPSQPGPWTTCPASNPLSHTSSQQPNQQGHQTSHVYMPISSPTTSQPPTIHSSGSSQSSAHSQYNIQNISTGPRKNQIEIKLEPPQRNNSSKLRSSGPRTSSTSSSVNSQTLNRNQPTVYIAASPPNTDELMSRSQPKVYISANAATGDEQVMRNQPTLFISTNSGASAASRNMSGQVSMGPAFIHHHPPKSRAIGNNSATSPRVVVTQPNTKYTFKITVSPNKPPAVSPGVVSPTFELTNLLNHPDHYVETENIQHLTDPTLAHVDRISETRKLSMGSDDAAYTQALLVHQKARMERLQRELEIQKKKLDKLKSEVNEMENNLTRRRLKRSNSISQIPSLEEMQQLRSCNRQLQIDIDCLTKEIDLFQARGPHFNPSAIHNFYDNIGFVGPVPPKPKDQRSIIKTPKTQDTEDDEGAQWNCTACTFLNHPALIRCEQCEMPRHF
partner: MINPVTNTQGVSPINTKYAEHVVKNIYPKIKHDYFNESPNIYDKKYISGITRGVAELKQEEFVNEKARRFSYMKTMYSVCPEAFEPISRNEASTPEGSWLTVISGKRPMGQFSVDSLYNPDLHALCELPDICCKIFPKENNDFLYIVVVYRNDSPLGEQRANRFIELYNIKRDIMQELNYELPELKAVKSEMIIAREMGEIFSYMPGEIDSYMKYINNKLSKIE
B2: TGF-beta-activated kinase 1 and MAP3K7-binding protein 3 (Homo sapiens), Q8N5C8-1 (parent)
chain: MAQSSPQLDIQVLHDLRQRFPEIPEGVVSQCMLQNNNNLEACCRALSQESSKYLYMEYHSPDDNRMNRNRLLHINLGIHSPSSYHPGDGAQLNGGRTLVHSSSDGHIDPQHAAGKQLICLVQEPHSAPAVVAATPNYNPFFMNEQNRSAATPPSQPPQQPSSMQTGMNPSAMQGPSPPPPPPSYMHIPRYSTNPITVTVSQNLPSGQTVPRALQILPQIPSNLYGSPGSIYIRQTSQSSSGRQTPQSTPWQSSPQGPVPHYSQRPLPVYPHQQNYQPSQYSPKQQQIPQSAYHSPPPSQCPSPFSSPQHQVQPSQLGHIFMPPSPSTTPPHPYQQGPPSYQKQGSHSVAYLPYTASSLSKGSMKKIEITVEPSQRPGTAINRSPSPISNQPSPRNQHSLYTATTPPSSSPSRGISSQPKPPFSVNPVYITYTQPTGPSCTPSPSPRVIPNPTTVFKITVGRATTENLLNLVDQEERSAAPEPIQPISVIPGSGGEKGSHKYQRSSSSGSDDYAYTQALLLHQRARMERLAKQLKLEKEELERLKSEVNGMEHDLMQRRLRRVSCTTAIPTPEEMTRLRSMNRQLQINVDCTLKEVDLLQSRGNFDPKAMNNFYDNIEPGPVVPPKPSKKDSSDPCTIERKARRISVTSKVQADIHDTQAAAADEHRTGSTQSPRTQPRDEDYEGAPWNCDSCTFLNHPALNRCEQCEMPRYT
partner: B1 partner

Variants of: B1
Details: with nlee_eco27 nleE

Question: How did the “effect of a mutation on the interaction” value turn out when C670S was run?
Answer: Its value is “disrupting interaction”.

Question: With C684S as the variant, how does the “effect of a mutation on the interaction” value read?
Answer: The value was “disrupting interaction”.

Question: C687S was tested. Which “effect of a mutation on the interaction” value did it give?
Answer: Its value is “disrupting interaction”.

Variants of: B2
Details: with nlee_eco27 nleE

Question: For C706S, which “effect of a mutation on the interaction” value is on record?
Answer: Its value is “disrupting interaction”.

Question: For C689S, which “effect of a mutation on the interaction” value is on record?
Answer: Its value is “disrupting interaction”.

Question: Which “effect of a mutation on the interaction” value does the source give for C703S here?
Answer: The value was “disrupting interaction”.
